Measured values from US8981179B2, “Transgenic non-human animal and uses thereof” (Sanofi, priority 2009, dated 2015).

Biological target: T1, prokineticin 2 receptor (PROK2R) (Mus musculus, UniProt Q8K458)
T1 construct: endogenous in cells; host or cells: primary cortical neurons, E18, CreLuc mouse lines (187 and others)
Test: Primary cortical neurons CreLuc luciferase assay, Gq modulation
Type: cell-based
Source text: A general schematic of the workflow for the isolation and compound treatment of primary neuronal cells from the CreLuc model is depicted in FIG. 9. Cortices or other brain subregions are removed from embryos, usually embryonic (E) day 17 or 18, but also as early as E14. The individual neurons are then isolated and plated onto 96 well assay plates. Assays are run either in triplicate or quadruplicate. The assays are run from day 3 in culture up until day 7 or day 10 in culture depending on the expression levels of the target GPCR. Compounds are added to the plates then at a set timepoint, Bright Glo (Promega, Cat #E2610) is added to the plates and the assay is then run on a TopCount or other luminometer.
Primary cell cultures from the CreLuc mice may be used to screen compounds that are capable of modulating Gs coupled receptors. The PROK2R is Gq coupled, therefore, prokineticin 2 (PROK2) which is an agonist for the PROK2R was used to see whether CreLuc mice would be responsive to Gq modulation. […]
The effects of PROK2 peptide on luciferase expression in primary cortical neurons from different CreLuc lines was examined. […] Lines were selected based on earlier experiments which determined inducible luciferase levels in whole brain extracts (data not shown). […] BrightGlo was used for the assay and read on a TopCount. […]

T1 sequence (Q8K458 whole entry): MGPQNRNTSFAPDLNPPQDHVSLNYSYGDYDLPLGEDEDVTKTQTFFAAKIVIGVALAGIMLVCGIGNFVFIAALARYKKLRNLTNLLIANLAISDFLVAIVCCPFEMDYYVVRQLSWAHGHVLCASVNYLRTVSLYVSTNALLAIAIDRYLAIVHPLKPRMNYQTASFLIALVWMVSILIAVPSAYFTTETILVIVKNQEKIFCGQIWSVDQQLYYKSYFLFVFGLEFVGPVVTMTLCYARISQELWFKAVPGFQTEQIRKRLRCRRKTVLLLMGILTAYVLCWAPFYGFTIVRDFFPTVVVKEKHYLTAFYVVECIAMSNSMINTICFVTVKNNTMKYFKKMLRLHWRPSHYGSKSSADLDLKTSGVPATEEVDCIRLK

B1: PROK2: prokineticin 2 peptide (Peprotech), agonist for the PROK2R (protein)
chain: AVITGACDKDSQCGGGMCCAVSIWVKSIRICTPMGKLGDSCHPLTRKVPFFGRRMHHTCPCLPGLACLRTSFNRFICLAQK
luciferase levels vs media only control (cortical neurons line 187, day 3, 1 nM and 100 nM, 4 hours and 8 hours): Highly significant increases
luciferase levels in cortical neurons from different CreLuc lines (lines 219 and 175, 1 nM and 100 nM, 4 hours and 24 hours): Statistically significant increases
